In patent US20070087400A1, “Covalent tethering of functional groups to proteins and substrates therefor” (priority 2004, published 2007):
Numbering of substitutions follows the chain as printed. Names and notes keep the numbering of the source.

How the values were obtained:
[1] = Precipitation of DhaA proteins with (NH4)2SO4; format: physicochemical; conditions: 2 hours, 4° C.
Description: Aliquots of the supernatant obtained from E. coli expressing DhaA (WT or one of the mutants) were treated with increasing concentrations of (NH4)2SO4. The proteins were exposed to each (NH4)2SO4 concentration for 2 hours (4° C.), pelleted by centrifugation, dialyzed overnight against buffer A, and resolved on SDS-PAGE.

[2] = Protein immobilization assay (substrate capture using immobilized DhaA); conditions: biotin-PEG4-14-Cl substrate
[3] = DhaA capture using immobilized biotin chloroalkane substrates (ELISA-type); format: binding
Description: DhaA capture using immobilized chloroalkane substrates. […] Reactions between immobilized substrate and mutant DhaAs were performed using purified GST-DhaA-Flag fusions. Various concentrations of protein (100 μL; diluted in PBSTB) were incubated with immobilized substrate for various times at 25° C., and the reactions were stopped by emptying the plates and washing 4× with PBST. To detect bound DhaA, 100 μL anti-GST-HRP (Amersham) was added to each well at a 1:10,000 dilution (in PBSTB) and the plates incubated for 1 hour at 25° C.

[4] = Covalent alkyl-enzyme formation in whole cells; conditions: 15 μM substrate, 4° C., approximately 18 hours
[5] = In vitro covalent alkyl-enzyme formation in crude lysates; conditions: 25 μM substrate, 2 hours at room temperature
[6] = Thermostability analysis (residual activity by FP assay); format: physicochemical; conditions: 60 minute incubations
Description: Thermostability analysis. The thermostability profiles of the DhaA mutants were determined by measuring the residual activity of the purified proteins following 15, 30 or 60 minute incubations at 4, 22, 30, 37, 42, 50 or 60° C. The FP assay was performed at room temperature (about 25° C.). […] For each clone, the labeling rate (slope of the linear range) was calculated for each condition. The rate observed following a 15 minute incubation at 4° C. was arbitrarily assigned as 100% activity. The residual activity (%) was calculated for each condition. To determine stability, for each incubation time, the % of residual activity was plotted against the incubation temperatures. To calculate half-life, for each incubation temperature, the % of residual activity was plotted against the incubation time. The time where 50% activity was lost was extrapolated from the graph.

[7] = In vivo labeling of DhaA mutants expressed in CHO-K1 cells (cell-to-gel analysis); format: cell-based; conditions: substrate concentration 5 μM
Description: Cell-to-gel analysis. […] Proteins (2-10 μl/lane) were resolved on SDS-PAGE (4-20% gradient gels).

[8] = Hydrolysis of CCF2 (FRET-based substrate) by BlaZ; format: biochemical, Staphylococcus aureus PC1
From the text: In CCF2, the cephalosporin core links a 7-hydroxycoumarin to a fluorescein. In the intact molecule, excitation of the coumarin (Eex-409 nm) results in FRET to the fluorescein, which emits green light (Eem-520 nm). Cleavage of CCF2 by β-lactamase results in spatial separation of the two dyes, disrupting FRET such that excitation of coumarin now gives rise to blue fluorescence (Eex-447 nm). CCF2 was purchased from Aurora Biosciences Corporation (San Diego, Calif.). Reduction of the FRET signal and an increase in blue fluorescence were measured on Fluorescence Multi-well Plate Reader CytoFluorI (PerSeptive Biosystems, Framingham, Mass., USA).

[9] = Hydrolysis of FAP by BlaZ (loss of absorbance at 344 nm); format: biochemical, Staphylococcus aureus PC1; conditions: 25° C., pH 6.8, up to 60 minutes
Description: The chromogenic substrate 6-β-[(Furylacryloyl)amido]penicillanic acid triethylamine salt (FAP) was purchased from Calbiochem (La Jolla, Calif.). […] All assays were performed at 25° C. in 0.1 M potassium phosphate buffer at pH 6.8.

B1: DhaA.H272Q: DhaA mutant with H272Q substitution (protein, UniProt P0A3G2 1-293, looked up, variant H272Q)
Haloalkane dehalogenase: MSEIGTGFPFDPHYVEVLGERMHYVDVGPRDGTPVLFLHGNPTSSYLWRNIIPHVAPSHRCIAPDLIGMGKSDKPDLDYFFDDHVRYLDAFIEALGLEEVVLVIHDWGSALGFHWAKRNPERVKGIACMEFIRPIPTWDEWPEFARETFQAFRTADVGRELIIDQNAFIEGALPKCVVRPLTEVEMDHYREPFLKPVDREPLWRFPNELPIAGEPANIVALVEAYMNWLHQSPVPKLLFWGTPGVLIPPAEAARLAESLPNCKTVDIGPGLQYLQEDNPDLIGSEIARWLPAL
For B1, the “(NH4)2SO4 concentration at which the protein was precipitated” value (“(NH4)2SO4 concentration” for short) [1] was 10%.

B2: DhaA.H272G: DhaA mutant with H272G substitution (protein, UniProt P0A3G2 1-293, looked up, variant H272G)
Haloalkane dehalogenase: B1 Haloalkane dehalogenase with Q272G
With B2 the “(NH4)2SO4 concentration” value [1] was 10%.

B3: DhaA.H272F YM: DhaA.H272F based mutant with Y273M (protein, UniProt P0A3G2 1-293, looked up, variant H272F Y273M)
Haloalkane dehalogenase: B1 Haloalkane dehalogenase with Q272F, Y273M
With B3 the “activity compared to parental clones” value [2] was “significantly improved” and the “reaction with immobilized biotin-PEG4-14-Cl” value [3] was “react most efficiently”.

B4: DhaA.H272F YL: DhaA.H272F based mutant with Y273L (protein, UniProt P0A3G2 1-293, looked up, variant H272F Y273L)
Haloalkane dehalogenase: B1 Haloalkane dehalogenase with Q272F, Y273L
With B4 the “activity compared to parental clones” value [2] was “significantly improved” and the “reaction with immobilized biotin-PEG4-14-Cl” value [3] was “react most efficiently”.

B5: DhaA.H272F: DhaA mutant, catalytic His272 replaced with Phe (protein, UniProt P0A3G2 1-293, looked up, variant H272F)
Haloalkane dehalogenase: B1 Haloalkane dehalogenase with Q272F
In the case of B5, the “formation of covalent alkyl-enzyme intermediate in whole cells” value [4] is reported as “capable of generating a covalent alkyl-enzyme intermediate” and the “formation of alkyl-enzyme covalent intermediate in crude lysates” value [5] is reported as “very efficient at producing this intermediate”.

B6: DhaA.H272F H11: first generation DhaA.H272F mutant with K175M and C176G (protein, UniProt P0A3G2 1-293, looked up, variant K175M C176G H272F)
Haloalkane dehalogenase: B1 Haloalkane dehalogenase with K175M, C176G, Q272F
With B6 the “reaction with all biotin substrates tested” value ([3]; biotin-14-Cl, biotin-X-14-Cl, biotin-PEG4-14-Cl) was “reacted poorly”, the “retained significant labeling activity following incubation as high as” value [6] was no more than 50 °C and the “in vivo labeling performance compared to parent DhaA.H272F” value [7] was “superior performance characteristics”.

B7: DhaA.H272F YC: DhaA.H272F based mutant with Y273C (protein, UniProt P0A3G2 1-293, looked up, variant H272F Y273C)
Haloalkane dehalogenase: B1 Haloalkane dehalogenase with Q272F, Y273C
In the case of B7, the “activity compared to parental clones” value [2] is reported as “significantly improved”.

B8: DhaA.H272A: DhaA mutant with H272A substitution (protein, UniProt P0A3G2 1-293, looked up, variant H272A)
Haloalkane dehalogenase: B1 Haloalkane dehalogenase with Q272A
For B8, the “(NH4)2SO4 concentration” value [1] was 10%.

B9: DhaA.WT: wild-type Rhodococcus rhodochrous dehalogenase (DhaA) (protein, UniProt P0A3G2 1-293, looked up)
Haloalkane dehalogenase: B1 Haloalkane dehalogenase with Q272H
In the case of B9, the “formation of alkyl-enzyme covalent intermediate in crude lysates” value [5] is reported as “No such product could be detected”.

B10: BlaZ.N170Q (protein, UniProt P00807 25-281, looked up, variant N170Q)
Beta-lactamase: KELNDLEKKYNAHIGVYALDTKSGKEVKFNSDKRFAYASTSKAINSAILLEQVPYNKLNKKVHINKDDIVAYSPILEKYVGKDITLKALIEASMTYSDNTANNKIIKEIGGIKKVKQRLKELGDKVTNPVRYEIELNYYSPKSKKDTSTPAAFGKTLNKLIANGKLSKEQKKFLLDLMLNNKSGDTLIKDGVPKDYKVADKSGQAITYASRNDVAFVYPKGQSEPIVLVIFTNKDNKSDKPNDKLISETAKSVMKEF
With B10 the “hydrolysis of CCF2” value [8] was “reduced the ability” and the “hydrolysis of FAP” value [9] was “could not be detected”.
